# Assay results: patent publication US20240109965A1 (Ablynx, published 2024)
# T1: cynomolgus T cell receptor (TCRαβ) on primary cynomolgus T cells (cynomolgus)
# T1 V domain 1: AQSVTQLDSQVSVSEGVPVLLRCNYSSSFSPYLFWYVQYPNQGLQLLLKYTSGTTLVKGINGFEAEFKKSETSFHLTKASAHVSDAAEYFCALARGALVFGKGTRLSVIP
# T1 V domain 2: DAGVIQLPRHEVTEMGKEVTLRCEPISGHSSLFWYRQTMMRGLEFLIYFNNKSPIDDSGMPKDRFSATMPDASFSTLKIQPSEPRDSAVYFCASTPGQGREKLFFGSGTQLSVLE
# T2: cynomolgus TCRαβ-zipper protein (cynomolgus)
# T2 construct: also called cyTCR(AEA41865)-zipper; CynoTCRαβ-zipper
# T2 TCR alpha: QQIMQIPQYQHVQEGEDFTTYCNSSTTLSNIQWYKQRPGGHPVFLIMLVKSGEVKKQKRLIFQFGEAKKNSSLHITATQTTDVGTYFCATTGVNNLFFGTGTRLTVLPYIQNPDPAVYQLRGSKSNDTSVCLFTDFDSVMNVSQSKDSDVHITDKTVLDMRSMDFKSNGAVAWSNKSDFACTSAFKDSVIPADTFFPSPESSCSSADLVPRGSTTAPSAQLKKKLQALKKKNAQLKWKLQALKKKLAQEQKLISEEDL
# T2 TCR beta: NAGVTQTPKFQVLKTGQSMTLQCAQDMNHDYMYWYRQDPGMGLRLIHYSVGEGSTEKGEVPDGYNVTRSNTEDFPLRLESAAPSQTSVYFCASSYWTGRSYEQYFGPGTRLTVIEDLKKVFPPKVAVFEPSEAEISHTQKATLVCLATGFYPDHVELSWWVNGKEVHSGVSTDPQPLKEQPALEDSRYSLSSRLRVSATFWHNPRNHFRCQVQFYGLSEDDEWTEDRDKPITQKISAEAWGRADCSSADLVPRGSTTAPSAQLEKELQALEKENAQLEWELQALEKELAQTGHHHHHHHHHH
# Assays:
# [1] = target: T1, cynomolgus T cell receptor (TCRαβ) on …; experiment: cell-based or functional assay
# [2] = target: T3, human T cell receptor (TCRαβ) on primary human T cells (human); experiment: cell-based or functional assay
# [3] = target: T3, human T cell receptor (TCRαβ) on …; experiment: cell-based or functional assay; remark: listed apart in the source
# [4] = target: T2, cynomolgus TCRαβ-zipper protein; experiment: SPR Biacore 8K+, multi-cycle kinetics, TCR-zipper immobilized
# Procedure: Binding of purified TCE-CD123-ALB and CD123-TCE-ALB ISVD constructs to human TCRαβ-zipper protein (huTCR(2XN9)-zipper, in-house produced) and cynomolgus TCRαβ-zipper protein (cyTCR(AEA41865)-zipper, in-house produced) was probed by Surface Plasmon Resonance (SPR) (Cytiva, Biacore 8K+). Both targets were immobilized on a CM5 sensor chip using standard amine coupling chemistry. […] Each concentration of the ISVDs was injected for 180s and dissociation was assessed during 600s.
# Data was double referenced by subtracting a reference flow cell (FC) and a blank buffer injection. Affinity constants (ka, kd and KD) were calculated applying the Langmuir 1:1 interaction model using the Biacore Insight Evaluation Software (Cytiva, Version 3.0.12.15655).
# T3 sequence (P0DTU3 134-275, chain 1 of 2): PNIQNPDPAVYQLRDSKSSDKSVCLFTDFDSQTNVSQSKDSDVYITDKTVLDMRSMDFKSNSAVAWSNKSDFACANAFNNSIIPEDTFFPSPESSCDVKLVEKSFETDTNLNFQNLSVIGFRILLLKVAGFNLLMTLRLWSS
# T3 sequence (P01850 other isoform, or with tags, fused parts or gaps, chain 2 of 2, further chain): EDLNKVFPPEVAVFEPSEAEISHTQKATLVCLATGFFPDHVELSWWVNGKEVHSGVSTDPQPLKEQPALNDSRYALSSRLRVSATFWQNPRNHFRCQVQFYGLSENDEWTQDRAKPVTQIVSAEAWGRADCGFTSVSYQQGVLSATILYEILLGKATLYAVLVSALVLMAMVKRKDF
Binder,Kd [4] [nM],"Potency (M) - cyno T cells, KG-1a cell killing [1] [M]","Potency (M) - human T cells, KG-1a cell killing [2] [M]","EC50 (M), human T cell mediated MOLM-13 cell killing, Donor #1 [3] [M]","EC50 (M), human T cell mediated MOLM-13 cell killing, Donor #2 [3] [M]"
T017001017 (bispecific antibody) EVQLVESGGGVVQPGGSLRLSCVASGYVHKINFYGWYRQAPGKEREKVAHISIGDQTDYADSAKGRFTISRDESKNTVYLQMNSLRPEDTAAYYCRALSRIWPYDYWGQGTLVTVSSGGGGSGGGSEVQLVESGGGVVQPGGSLRLSCAASGTTLDYYVIGWFRQAPGKEREGVSCISSSDGYTYYADSVKGRFTISRDNAKNTVYLQMNSLRPEDTALYYCATDPYYSSCHPFFADYEYDYWGQGTLVTVSSGGGGSGGGSEVQLVESGGGVVQPGGSLRLSCAASGFTFRSFGMSWVRQAPGKGPEWVSSISGSGSDTLYADSVKGRFTISRDNSKNTLYLQMNSLRPEDTALYYCTIGGSLSRSSQGTLVTVSS,13,3.9e-11,2.1e-10,4.5e-11,9.2e-11
T017001020 (bispecific antibody) EVQLVESGGGVVQPGGSLRLSCVASGYVHKINFYGWYRQAPGKEREKVAHISIGDQTDYAESAKGRFTISRDESKNTVYLQMNSLRPEDTAAYYCRALSRISPYDYWGQGTLVTVSSGGGGSGGGSEVQLVESGGGVVQPGGSLRLSCAASGTTLDYYVIGWFRQAPGKEREGVSCISSSDGYTYYADSVKGRFTISRDNAKNTVYLQMNSLRPEDTALYYCATDPYYSSCHPFFADYEYDYWGQGTLVTVSSGGGGSGGGSEVQLVESGGGVVQPGGSLRLSCAASGFTFRSFGMSWVRQAPGKGPEWVSSISGSGSDTLYADSVKGRFTISRDNSKNTLYLQMNSLRPEDTALYYCTIGGSLSRSSQGTLVTVSS,550,–,7.6e-10,–,–
T017001019 (bispecific antibody) EVQLVESGGGVVQPGGSLRLSCVASGYVHKINFYGWYRQAPGKEREKVAHISIGDQTDYAESAKGRFTISRDESKNTVYLQMNSLRPEDTAAYYCRALSRITPYDYWGQGTLVTVSSGGGGSGGGSEVQLVESGGGVVQPGGSLRLSCAASGTTLDYYVIGWFRQAPGKEREGVSCISSSDGYTYYADSVKGRFTISRDNAKNTVYLQMNSLRPEDTALYYCATDPYYSSCHPFFADYEYDYWGQGTLVTVSSGGGGSGGGSEVQLVESGGGVVQPGGSLRLSCAASGFTFRSFGMSWVRQAPGKGPEWVSSISGSGSDTLYADSVKGRFTISRDNSKNTLYLQMNSLRPEDTALYYCTIGGSLSRSSQGTLVTVSS,1600,7.4e-10,2.3e-09,1.5e-10,5.2e-10

# The remaining binders from weak to strong by Kd [4], led by results:
Kd [4] [nM],Binder,"Potency (M) - cyno T cells, KG-1a cell killing [1] [M]","Potency (M) - human T cells, KG-1a cell killing [2] [M]","EC50 (M), human T cell mediated MOLM-13 cell killing, Donor #1 [3] [M]","EC50 (M), human T cell mediated MOLM-13 cell killing, Donor #2 [3] [M]"
3400,T017001021 (bispecific antibody) EVQLVESGGGVVQPGGSLRLSCVASGYVHKINFYGWYRQAPGKEREKVAHISIGDQTDYAESAKGRFTISRDESKNTVYLQMNSLRPEDTAAYYCRALSRIQPYDYWGQGTLVTVSSGGGGSGGGSEVQLVESGGGVVQPGGSLRLSCAASGTTLDYYVIGWFRQAPGKEREGVSCISSSDGYTYYADSVKGRFTISRDNAKNTVYLQMNSLRPEDTALYYCATDPYYSSCHPFFADYEYDYWGQGTLVTVSSGGGGSGGGSEVQLVESGGGVVQPGGSLRLSCAASGFTFRSFGMSWVRQAPGKGPEWVSSISGSGSDTLYADSVKGRFTISRDNSKNTLYLQMNSLRPEDTALYYCTIGGSLSRSSQGTLVTVSS,9.4e-10,5.7e-09,2.3e-10,2.1e-09
32,T017001018 (bispecific antibody) EVQLVESGGGVVQPGGSLRLSCVASGYVHKINFYGWYRQAPGKEREKVAHISIGDQTDYAESAKGRFTISRDESKNTVYLQMNSLRPEDTAAYYCRALSRIYPYDYWGQGTLVTVSSGGGGSGGGSEVQLVESGGGVVQPGGSLRLSCAASGTTLDYYVIGWFRQAPGKEREGVSCISSSDGYTYYADSVKGRFTISRDNAKNTVYLQMNSLRPEDTALYYCATDPYYSSCHPFFADYEYDYWGQGTLVTVSSGGGGSGGGSEVQLVESGGGVVQPGGSLRLSCAASGFTFRSFGMSWVRQAPGKGPEWVSSISGSGSDTLYADSVKGRFTISRDNSKNTLYLQMNSLRPEDTALYYCTIGGSLSRSSQGTLVTVSS,4e-11,2.7e-10,3.3e-11,1e-10
